T1: SNAP25 Peptide 1 (PEP1) (Homo sapiens, UniProt P60880 SEQ:1-35)
T1 chain: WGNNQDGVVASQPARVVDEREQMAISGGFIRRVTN

T2: SNAP25 Peptide 3 (PEP3; only a fragment of it is a SNAP25 subsequence) (Homo sapiens, UniProt P60880 SEQ:1-33)
T2 chain: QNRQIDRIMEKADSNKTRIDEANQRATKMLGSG

B1: PEP 1.15 (ssDNA)
DNA: TTTTTAAGCCCACCTCTCTGTGGGAGACACAGTTATTGCAGGTGGGCCCATG
modifications: W indole, X amine, Y phenol modified dU [15,19,34 (Y phenol dU); 17,36 (W indole dU)]
B2: PEP 1.24 (ssDNA)
DNA: TTTTTAACACGACCGCCCTGTGGGCAACACAGGGATCTGCAGTCGTGCCATG
modifications: W indole, X amine, Y phenol modified dU [19,36,38,43,46]
B3: PEP 1.17 (ssDNA)
DNA: TTTTTAACACGACGGCGGTTCGCCTCCCGAACGTTGTTGGAGTCGTGCCATG
modifications: W indole, X amine, Y phenol modified dU [19,38 (W indole dU); 20,34,35,46 (Y phenol dU); 25,43 (X amine dU)]
B4: PEP 1.02 (ssDNA)
DNA: TTTTTAACACGACCATCCTGTGCCTCACGAACTCATTGCCCGTCGTGCCATG
modifications: W indole, X amine, Y phenol modified dU [16,19,25,36,43,46]
B5: PEP 1.20 (ssDNA)
DNA: TTTTTAACACGACGAACCTGTGCTCAACACAGAACATCACAGTGGGCCCATG
modifications: W indole, X amine, Y phenol modified dU [19,24]
B6: PEP 1.05 (ssDNA)
DNA: TTTTTAAGCCCACCAAGCTGTGGCGGGCACAGGGCAGCATCGTCGTGCCATG
modifications: W indole, X amine, Y phenol modified dU [19,40,43,46]
B7: PEP 1.09 (ssDNA)
DNA: TTTTTAACACGACTTATCTGTGTCAGTCGAACGTCGCGGAGGTGGGCCCATG
modifications: W indole, X amine, Y phenol modified dU [14,27 (X amine dU); 15,19,34 (Y phenol dU); 17,23 (W indole dU)]
B8: PEP 1.18 (ssDNA)
DNA: TTTTTAACACGACCACCCTGTGCAAGGCGAACTCCGTCAAAGTGGGCCCATG
modifications: W indole, X amine, Y phenol modified dU [19]
B9: PEP 1.10 (ssDNA)
DNA: TTTTTAACACGACGGGCGTTCGCTGGTCGAACACCAATGCTGTGGGCCCATG
modifications: W indole, X amine, Y phenol modified dU [19,24,38 (W indole dU); 20 (Y phenol dU); 27 (X amine dU)]
B10: PEP 1.03 (ssDNA)
DNA: TTTTTAACACGACGGGGGTTCGGGCAGCGAACAGATGGGCGGTGGGCCCATG
modifications: W indole, X amine, Y phenol modified dU [19,20,36]
B11: PEP 1.12 (ssDNA)
DNA: TTTTTAAGCCCACAAAAGTTCGATCAGCACAGGTCGCCAAAGTCGTGCCATG
modifications: W indole, X amine, Y phenol modified dU [19,24 (W indole dU); 20,34,46 (Y phenol dU); 43 (X amine dU)]
B12: PEP 1.16 (ssDNA)
DNA: TTTTTAACACGACGGGCCTGTGAACACCGAACTGATGGGTCGTGGGCCCATG
modifications: W indole, X amine, Y phenol modified dU [19 (Y phenol dU); 36,40 (W indole dU)]
B13: PEP 1.19 (ssDNA)
DNA: TTTTTAACACGACATAGCTGTGACAGGCACAGGTCATGGGAGTCGTGCCATG
modifications: W indole, X amine, Y phenol modified dU [15,19,34,43,46]
B14: PEP 1.14 (ssDNA)
DNA: TTTTTAAGCCCACCTGACTGTGGTGGGCACAGTTCGCCATCGTGGGCCCATG
modifications: W indole, X amine, Y phenol modified dU [15,19,34 (Y phenol dU); 24,40 (W indole dU)]
B15: PEP 1.08 (ssDNA)
DNA: TTTTTAACACGACCCCGGTTCGACTCCCACAGAGCGGGGGTGTCGTGCCATG
modifications: W indole, X amine, Y phenol modified dU [19 (W indole dU); 20,46 (Y phenol dU); 25,43 (X amine dU)]
B16: PEP 1.07 (ssDNA)
DNA: TTTTTAACACGACTCAACTGTGATTCCCACAGACTGGGCTCGTGGGCCCATG
modifications: W indole, X amine, Y phenol modified dU [14,25 (X amine dU); 19,35 (Y phenol dU); 24,40 (W indole dU)]
B17: PEP 1.11 (ssDNA)
DNA: TTTTTAACACGACGCCAGTTCGAAGGTCACAGTTATTTGGCGTCGTGCCATG
modifications: W indole, X amine, Y phenol modified dU [19,36,38 (W indole dU); 20,34,46 (Y phenol dU); 27,43 (X amine dU)]
B18: PEP 1.23 (ssDNA)
DNA: TTTTTAAGCCCACTTCACTGTGGCTCGCACAGGCCGATGGGGTCGTGCCATG
modifications: W indole, X amine, Y phenol modified dU [14,15,19,25,38,43,46]
B19: PEP 1.22 (ssDNA)
DNA: TTTTTAACACGACTTGGGTTCGGAAGGCGAACCGCAGCAATGTGGGCCCATG
modifications: W indole, X amine, Y phenol modified dU [14,15,19,20]
B20: PEP 1.06 (ssDNA)
DNA: TTTTTAAGCCCACCTCAGTTCGCTCATCGAACGACGATGCTGTGGGCCCATG
modifications: W indole, X amine, Y phenol modified dU [15,20 (Y phenol dU); 19,24,38 (W indole dU); 27 (X amine dU)]
B21: PEP 1.21 (ssDNA)
DNA: TTTTTAAGCCCACCGGTCTGTGGTTCCCACAGTGCATGCGAGTGGGCCCATG
modifications: W indole, X amine, Y phenol modified dU [17,19,24,25]
B22: PEP 1.04 (ssDNA)
DNA: TTTTTAACACGACGCTCCTGTGACAGCCGAACATCATTGGTGTCGTGCCATG
modifications: W indole, X amine, Y phenol modified dU [16,19,34,38,43,46]
B23: PEP 1.01 (ssDNA)
DNA: TTTTTAACACGACGCGACTGTGAGAGGCACAGTTTGGGGGCGTGGGCCCATG
modifications: W indole, X amine, Y phenol modified dU [19,34,35]
B24: PEP 3.18 (ssDNA)
DNA: TTTTTAACACGACACGGGTTCGCACATCACAGAGATACACTGTCGTGCCATG
modifications: W indole, X amine, Y phenol modified dU [19, 36 (indole dU), 20, 46 (phenol dU), 27, 43 (amine dU)]
B25: PEP 3.21 (ssDNA)
DNA: TTTTTAAGCCCACTCCGGTTCGTCCATCACAGCCCACTGTGGTCGTGCCATG
modifications: W indole, X amine, Y phenol modified dU [14, 27, 43 (amine dU), 19, 23, 38, 40 (indole dU), 20, 46 (phenol dU)]
B26: PEP 3.05 (ssDNA)
DNA: TTTTTAACACGACGACACTGTGTTGGGCGAACTCCGCTGGGGTGGGCCCATG
modifications: W indole, X amine, Y phenol modified dU [19Y,23W,24W,38W]
B27: PEP 3.19 (ssDNA)
DNA: TTTTTAAGCCCACGCCACTGTGACCATCGAACCACACGGCCGTCGTGCCATG
modifications: W indole, X amine, Y phenol modified dU [19, 46 (phenol dU), 27, 43 (amine dU)]
B28: PEP 3.12 (ssDNA)
DNA: TTTTTAACACGACTATCCTGTGAGCAACACAGGGCGGCACTGTGGGCCCATG
modifications: W indole, X amine, Y phenol modified dU [14 (amine dU), 16 (indole dU), 19 (phenol dU)]
B29: PEP 3.10 (ssDNA)
DNA: TTTTTAACACGACAGCACTGTGCACAGCACAGCTCAAGGGTGTGGGCCCATG
modifications: W indole, X amine, Y phenol modified dU [19Y,34Y]
B30: PEP 3.07 (ssDNA)
DNA: TTTTTAAGCCCACGACACTGTGGCCAACACAGTACATGCATGTGGGCCCATG
modifications: W indole, X amine, Y phenol modified dU [19Y]
B31: PEP 3.20 (ssDNA)
DNA: TTTTTAAGCCCACAGTTCTGTGTTCATCACAGAGCAACACTGTGGGCCCATG
modifications: W indole, X amine, Y phenol modified dU [16, 17, 23, 24 (indole dU), 19 (phenol dU), 27 (amine dU)]
B32: PEP 3.04 (ssDNA)
DNA: TTTTTAAGCCCACGGCACTGTGCTCAGCACAGCTCGGGGTGGTGGGCCCATG
modifications: W indole, X amine, Y phenol modified dU [19Y,24W,34Y,40W]
B33: PEP 3.03 (ssDNA)
DNA: TTTTTAACACGACAATGGTTCGGGGGGCGAACGTCACTGTGGTCGTGCCATG
modifications: W indole, X amine, Y phenol modified dU [16W,19W,20Y,34Y,38W,40W,43X,46Y]
B34: PEP 3.15 (ssDNA)
DNA: TTTTTAACACGACTGCACTGTGAATCTCGAACGCATCGGGAGTCGTGCCATG
modifications: W indole, X amine, Y phenol modified dU [14, 25, 27, 43 (amine dU), 19, 46 (phenol dU), 36 (indole dU)]
B35: PEP 3.23 (ssDNA)
DNA: TTTTTAAGCCCACCTCACTGTGCAAGTCACAGGTCGGCACCGTGGGCCCATG
modifications: W indole, X amine, Y phenol modified dU [15, 19, 34 (phenol dU), 27 (amine dU)]
B36: PEP 3.11 (ssDNA)
DNA: TTTTTAAGCCCACTGTCGTTCGGCGGGCGAACGACAGCATGGTCGTGCCATG
modifications: W indole, X amine, Y phenol modified dU [14X,16W,19W,20Y,40W,43X,46Y]
B37: PEP 3.17 (ssDNA)
DNA: TTTTTAAGCCCACTAGAGTTCGGCCATCACAGTCCAACACTGTGGGCCCATG
modifications: W indole, X amine, Y phenol modified dU [14, 27 (amine dU), 19 (indole dU), 20 (phenol dU)]
B38: PEP 3.14 (ssDNA)
DNA: TTTTTAACACGACACCACTGTGCCCACCACAGTTCACTGAAGTGGGCCCATG
modifications: W indole, X amine, Y phenol modified dU [19, 34 (phenol dU), 38 (indole dU)]
B39: PEP 3.16 (ssDNA)
DNA: TTTTTAAGCCCACATCACTGTGCGAGCCACAGATCAGGCAGGTGGGCCCATG
modifications: W indole, X amine, Y phenol modified dU [15, 19, 34 (phenol dU)]
B40: PEP 3.24 (ssDNA)
DNA: TTTTTAAGCCCACCAGGGTTCGGGAGCCGAACGCCAGCACTGTCGTGCCATG
modifications: W indole, X amine, Y phenol modified dU [19,20,43,46]
B41: PEP 3.13 (ssDNA)
DNA: TTTTTAACACGACATCACTGTGCACAGCGAACTGCGTTGGCGTCGTGCCATG
modifications: W indole, X amine, Y phenol modified dU [15, 19, 46 (phenol dU), 38 (indole dU), 43 (amine dU)]
B42: PEP 3.02 (ssDNA)
DNA: TTTTTAACACGACAGCACTGTGGTTCGCGAACCTCAAGCTCGTCGTGCCATG
modifications: W indole, X amine, Y phenol modified dU [19Y,24W,25X,34Y,40W,43X,46Y]
B43: PEP 3.22 (ssDNA)
DNA: TTTTTAACACGACATCACTGTGGAAGACACAGGACGTGCGTGTCGTGCCATG
modifications: W indole, X amine, Y phenol modified dU [15, 19, 46 (phenol dU), 43 (amine dU)]
B44: PEP 3.08 (ssDNA)
DNA: TTTTTAACACGACGTCACTGTGGTTCTCGAACGCCGCGCTTGTCGTGCCATG
modifications: W indole, X amine, Y phenol modified dU [15Y,19Y,24W,25X,27X,40W,43X,46Y]
B45: PEP 3.06 (ssDNA)
DNA: TTTTTAACACGACCGCACTGTGATAGGCGAACGGTGTGGAGGTCGTGCCATG
modifications: W indole, X amine, Y phenol modified dU [19Y,24W,35Y,43X,46Y]
B46: PEP 3.01 (ssDNA)
DNA: TTTTTAACACGACACCACTGTGGTTCTCACAGCTATGTGTTGTGGGCCCATG
modifications: W indole, X amine, Y phenol modified dU [19Y,24W,25X,27X,34Y,36W,38W,40W]

Target: T1, SNAP25 Peptide 1 (PEP1)
Assay: ELONA
Text: (§1) The data in Table 2 was collected by running direct ELISA assays on the 96 X-aptamers, elucidating their ability to bind SNAP25, SNAP25 fragments (PEP1, PEP2, PEP3, and PEP4), and a negative control. The X-aptamers were biotinylated and immobilized onto streptavidin-coated plates and were utilized as detection molecules. Higher numbers represent strong binding. The negative control peptide is a random peptide to measure the amount of binding that occurs to a random amino acid sequence.

| Binder | binding signal [ELISA signal] |
| --- | --- |
| B1 | 220 |
| B2 | 160 |
| B3 | 200 |
| B4 | 742 |
| B5 | 188 |
| B6 | 641 |
| B7 | 337 |
| B8 | 200 |
| B9 | 293 |
| B10 | 677 |
| B11 | 289 |
| B12 | 212 |
| B13 | 200 |
| B14 | 241 |
| B15 | 357 |
| B16 | 429 |
| B17 | 293 |
| B18 | 168 |
| B19 | 184 |
| B20 | 477 |
| B21 | 188 |
| B22 | 645 |
| B23 | 2240 |

Target: T2, SNAP25 Peptide 3 (PEP3; only a fragment …)
Assay: ELONA
Text: as §1

| Binder | binding signal [ELISA signal] |
| --- | --- |
| B24 | 105 |
| B25 | 96 |
| B26 | 272 |
| B27 | 102 |
| B28 | 118 |
| B29 | 139 |
| B30 | 219 |
| B31 | 97 |
| B32 | 276 |
| B33 | 338 |
| B34 | 114 |
| B35 | 95 |
| B36 | 137 |
| B37 | 110 |
| B38 | 114 |
| B39 | 111 |
| B40 | 81 |
| B41 | 115 |
| B42 | 406 |
| B43 | 96 |
| B44 | 207 |
| B45 | 230 |
| B46 | 503 |

— patent US20220064648, “NOVEL X-[…] FOR THE USE IN DETECTION OF SNAP25” (Galderma Holding S.A., published 2022)
